The source of these data is PMC2923778 (Journal of Molecular Biology, 2010).

One test has as its target T1, hSPSB1 (Homo sapiens, UniProt Q96BD6).
T1 construct: hexahistidine (N, cleaved yes); made in house; host or cells: E. coli BL21(DE3)-R3-pRARE2
T1 sequence (Q96BD6 24-233): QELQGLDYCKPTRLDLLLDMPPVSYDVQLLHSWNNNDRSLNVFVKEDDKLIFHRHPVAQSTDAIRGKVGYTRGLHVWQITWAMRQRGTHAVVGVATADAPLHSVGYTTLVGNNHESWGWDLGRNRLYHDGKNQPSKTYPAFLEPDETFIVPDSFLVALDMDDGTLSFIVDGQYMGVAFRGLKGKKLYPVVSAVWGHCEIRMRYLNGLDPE
Description: ITC of peptides with hSPSB1. As to conditions: 20 °C, 50 mM Hepes pH 7.4, 150 mM NaCl, 1 mM DTT, 100 μM peptide into 10 μM protein, ± error of curve fit, single binding site model. The procedure:
Human SPSB constructs lacking the SOCS box region [hSPSB1(24–233), SWISS-PROT accession number Q96BD6; hSPSB2(26–219), Q99619 and hSPSB4(28–233), Q96A44] were cloned into pNIC28-Bsa4 by ligation-independent cloning. Constructs were transformed into BL21(DE3)-R3-pRARE2 and expressed overnight at 18 °C with 0.5 mM IPTG added at OD600 = 0.5–0.8. hSPSB proteins were purified using Ni-Sepharose (GE Healthcare, UK), eluted by imidazole and subsequently cleaved from the N-terminal hexahistidine tag by addition of tobacco etch virus protease (although hSPSB2 was resistant to cleavage). Further purification was achieved by size-exclusion chromatography and finally anion-exchange chromatography in the case of hSPSB1.
ITC measurements on mSPSB proteins were performed at 22 °C using a MicroCalorimetry System (MicroCal, Northhampton, MA). mSPSB1, mSPSB2, and mSPSB4 were prepared by dialyzing against 20 mM Tris, 150 mM sodium chloride, and 2.5 mM calcium chloride at pH 8.0. […] Dilution enthalpies were determined separately by titrating peptide into buffer and used to correct the enthalpies of the binding of protein and peptide. Data were analyzed using a single binding site model implemented in the Origin software package provided with the instrument.

In a further test the test system is hSPSB1-elonginBC. The arrangement: method as in PMID 17189197. As to conditions: previous study; cited from earlier work.
The target in the next test is mSPSB4ΔSB (murine). Description: ITC; 100 μM peptide titrated into 10 μM mSPSB protein; 22 °C; 20 mM Tris, 150 mM sodium chloride, 2.5 mM calcium chloride, pH 8.0; single binding site model. A general note: Isothermal titration calorimetry measures the heat released or taken up as one component is titrated into another.
Another test has as its target mSPSB1ΔSB (murine). The description is as above.
For test [1], the target named is T2, mSPSB2(12–224) (murine, UniProt O88838 12-224).
T2 construct: murine SPSB2 (SSB-2), residues 12-224: lacks the first 11 residues and the C-terminal SOCS box; Uniformly 15N-labelled in one NMR experiment; also called mSPSB2ΔSB; 15N-mSPSB2(12–224); source: E. coli Origami B(DE3) pLysS, GST fusion, purified (glutathione-Sepharose, thrombin cleavage, gel filtration)
T2 sequence (looked up): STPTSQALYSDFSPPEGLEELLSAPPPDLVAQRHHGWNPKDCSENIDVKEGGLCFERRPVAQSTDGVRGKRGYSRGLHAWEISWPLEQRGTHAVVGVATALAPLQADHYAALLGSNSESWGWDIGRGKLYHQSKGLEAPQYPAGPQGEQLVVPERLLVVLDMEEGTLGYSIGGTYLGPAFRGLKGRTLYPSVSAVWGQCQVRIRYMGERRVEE
Described as above. Conditions: both partners purified.

Test [2] has as its target T2, mSPSB2(12–224). The test is described as above. Conditions: both partners purified. The source holds these as a separate data set.

On to `CC[C@H](C)[C@H](NC(=O)[C@H](Cc1ccc(O)cc1)NC(=O)[C@H](Cc1ccccc1)NC(=O)[C@H](CCC(=O)O)NC(=O)[C@H](CCCNC(=N)N)NC(=O)[C@H](CCCCN)NC(=O)[C@H](CCCNC(=N)N)NC(=O)[C@H](CCC(=O)O)NC(=O)[C@@H](NC(=O)[C@H](CC(=O)O)NC(=O)[C@H](CCC(=O)O)NC(=O)[C@@H](NC(=O)[C@@H](NC(=O)[C@H](CC(N)=O)NC(=O)[C@H](CC(N)=O)NC(=O)[C@H](CC(N)=O)NC(=O)[C@H](CC(N)=O)NC(=O)[C@H](CC(N)=O)NC(=O)[C@@H](NC(=O)[C@@H](N)CC(=O)O)[C@@H](C)CC)[C@@H](C)CC)C(C)C)C(C)C)C(=O)O` [VASA], for which, at hSPSB1, binding was characterised by a dissociation constant (Kd) of 40 ± 5 nM.
Take “[N72A]hPar-4(67–81): N72A mutant peptide of hPar-4(67–81) from a previous study (ref 10) (NELNNALPGGAPAAP; UniProt Q96IZ0 67-81, looked up, variant N72A)”: in the test with hSPSB1-elonginBC, the “binding to hSPSB1-elonginBC (in words)” value is recorded as “poor binding”.

B1: hPar-4(64–77) (peptide)
peptide: AAANELNNNLPGGA
notes: human prostate apoptosis response protein-4 (hPar-4), residues 64-77; also called shorter wild-type hPar-4 peptide; source: synthetic peptide (GenScript Corporation)
On to B1, for which the Kd with mSPSB4ΔSB (murine) worked out at 213 nM; with mSPSB1ΔSB (murine) it was 210 nM; with mSPSB2(12–224) [1], 3100 nM; with mSPSB2(12–224) [2] it was 3200 nM.

As a reminder, the Kd is a measure of binding affinity in units of concentration.
